From patent US20170355992, “FACTOR V/Va-TARGETING APTAMER COMPOSITONS AND METHODS OF USING THE SAME” (Duke University, published 2017) come the findings set out here.

The target in data set [1] is T1, Coagulation Factor V (FV), modified (Homo sapiens, UniProt P12259 P12259:29-2224). Nature of the data set: FP_none filter. The note with it: tags: modified FV, protease-stabilised form described previously; label: 5'-32P. The protocol: (§1) Apparent binding affinity of the aptamers to a purified protein was determined using double filter nitrocellulose binding assays. Binding of the radiolabeled pooled RNA, 11HMT, and 11Mut2 to modified FV and FVa was assessed by incubating trace amounts of radiolabeled RNA with serial dilutions of the purified target protein. For SELEX round binding, pooled RNAs were incubated with modified FV or FVa diluted two fold from 0 nM to 750-800 nM for both proteins. For 11HMT, the radiolabeled RNAs were incubated with both proteins from 0 nM to 500 nM. The radiolabeled RNAs were denatured and re-folded in Hepes-buffered saline (HBS) with CaCl2 (20 mM Hepes pH 7.4, 150 mM NaCl, 2 mM CaCl2), 0.01% bovine serum albumin (BSA), and 0.1% w/v polyethylene glycol 8000 (PEG 8000) by incubating at 95° C. for 3 minutes followed by cooling to room temperature for 3 minutes. The radiolabeled RNA alone was incubated at 37° C. for 5 minutes, followed by incubation with the protein in HBS with CaCl2, 0.01% BSA, and 0.1% w/v PEG 8000 at 37° C. for 5 minutes. […] Bound and unbound RNA was quantitated using a Storm 825 phosphoimager (GE Healthcare, Little Chalfont, Buckinghamshire, UK) and quantified via densitometry.
Target sequence in this assay (P12259 29-2224, one chain of several): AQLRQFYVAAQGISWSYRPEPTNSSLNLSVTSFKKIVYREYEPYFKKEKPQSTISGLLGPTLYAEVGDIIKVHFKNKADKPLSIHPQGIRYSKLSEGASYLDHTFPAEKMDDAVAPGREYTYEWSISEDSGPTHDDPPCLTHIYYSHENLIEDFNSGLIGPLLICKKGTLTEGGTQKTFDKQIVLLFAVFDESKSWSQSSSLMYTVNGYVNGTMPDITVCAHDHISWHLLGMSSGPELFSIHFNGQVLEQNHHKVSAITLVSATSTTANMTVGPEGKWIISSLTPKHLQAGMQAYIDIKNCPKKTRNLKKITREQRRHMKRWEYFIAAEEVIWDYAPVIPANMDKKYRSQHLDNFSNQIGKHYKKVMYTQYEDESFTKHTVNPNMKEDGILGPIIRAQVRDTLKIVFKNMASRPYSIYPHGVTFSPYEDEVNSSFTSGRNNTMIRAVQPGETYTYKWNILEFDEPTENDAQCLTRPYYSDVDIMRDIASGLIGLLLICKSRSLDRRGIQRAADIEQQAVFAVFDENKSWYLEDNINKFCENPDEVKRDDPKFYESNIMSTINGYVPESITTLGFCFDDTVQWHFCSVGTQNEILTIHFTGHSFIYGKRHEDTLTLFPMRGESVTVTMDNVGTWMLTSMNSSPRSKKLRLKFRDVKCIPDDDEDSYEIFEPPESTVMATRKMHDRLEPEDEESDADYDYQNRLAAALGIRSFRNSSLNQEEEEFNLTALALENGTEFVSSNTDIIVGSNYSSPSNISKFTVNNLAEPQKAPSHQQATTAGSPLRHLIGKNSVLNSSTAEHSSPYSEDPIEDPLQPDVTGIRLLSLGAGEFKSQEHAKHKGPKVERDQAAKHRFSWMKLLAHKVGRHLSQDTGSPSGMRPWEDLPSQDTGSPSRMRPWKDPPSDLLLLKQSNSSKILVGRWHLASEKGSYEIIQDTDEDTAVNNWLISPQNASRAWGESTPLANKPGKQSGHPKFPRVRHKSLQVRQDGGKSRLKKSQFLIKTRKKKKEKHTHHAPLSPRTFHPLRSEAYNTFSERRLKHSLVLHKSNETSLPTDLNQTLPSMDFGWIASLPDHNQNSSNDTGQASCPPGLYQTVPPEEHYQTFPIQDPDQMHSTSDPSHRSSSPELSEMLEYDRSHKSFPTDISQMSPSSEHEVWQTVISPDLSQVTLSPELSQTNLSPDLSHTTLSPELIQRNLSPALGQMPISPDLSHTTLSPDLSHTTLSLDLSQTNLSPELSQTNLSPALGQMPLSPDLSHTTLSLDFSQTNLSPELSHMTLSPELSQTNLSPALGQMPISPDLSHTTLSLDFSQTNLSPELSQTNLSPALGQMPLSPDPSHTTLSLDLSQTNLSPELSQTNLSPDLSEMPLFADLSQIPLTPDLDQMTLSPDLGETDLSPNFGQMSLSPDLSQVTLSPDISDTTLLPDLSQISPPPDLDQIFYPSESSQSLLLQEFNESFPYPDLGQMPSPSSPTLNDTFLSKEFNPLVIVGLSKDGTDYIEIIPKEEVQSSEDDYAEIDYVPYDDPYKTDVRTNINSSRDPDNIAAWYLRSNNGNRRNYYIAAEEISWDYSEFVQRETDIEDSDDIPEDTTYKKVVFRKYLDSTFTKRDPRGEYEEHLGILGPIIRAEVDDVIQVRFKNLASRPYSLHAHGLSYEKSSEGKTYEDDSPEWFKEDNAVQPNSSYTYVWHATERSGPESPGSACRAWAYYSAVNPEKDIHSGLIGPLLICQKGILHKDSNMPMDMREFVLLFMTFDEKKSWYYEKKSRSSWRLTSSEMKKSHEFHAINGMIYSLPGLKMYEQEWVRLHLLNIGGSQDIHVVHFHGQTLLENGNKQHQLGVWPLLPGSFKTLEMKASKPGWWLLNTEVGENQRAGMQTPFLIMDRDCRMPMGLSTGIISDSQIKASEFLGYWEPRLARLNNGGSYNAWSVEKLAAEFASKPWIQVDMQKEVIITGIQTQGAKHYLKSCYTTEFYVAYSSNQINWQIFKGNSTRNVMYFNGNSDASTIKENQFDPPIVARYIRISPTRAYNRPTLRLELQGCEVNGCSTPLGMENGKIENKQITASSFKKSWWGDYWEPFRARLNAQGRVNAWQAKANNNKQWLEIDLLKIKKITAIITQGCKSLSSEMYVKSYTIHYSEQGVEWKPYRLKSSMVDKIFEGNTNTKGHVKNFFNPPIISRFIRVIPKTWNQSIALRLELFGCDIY

Data set [2] has as its target T2, Coagulation Factor Va (FVa), modified (Homo sapiens, UniProt P12259;P12259 P12259:29-737,P12259:1574-2224).
T2 chain 1: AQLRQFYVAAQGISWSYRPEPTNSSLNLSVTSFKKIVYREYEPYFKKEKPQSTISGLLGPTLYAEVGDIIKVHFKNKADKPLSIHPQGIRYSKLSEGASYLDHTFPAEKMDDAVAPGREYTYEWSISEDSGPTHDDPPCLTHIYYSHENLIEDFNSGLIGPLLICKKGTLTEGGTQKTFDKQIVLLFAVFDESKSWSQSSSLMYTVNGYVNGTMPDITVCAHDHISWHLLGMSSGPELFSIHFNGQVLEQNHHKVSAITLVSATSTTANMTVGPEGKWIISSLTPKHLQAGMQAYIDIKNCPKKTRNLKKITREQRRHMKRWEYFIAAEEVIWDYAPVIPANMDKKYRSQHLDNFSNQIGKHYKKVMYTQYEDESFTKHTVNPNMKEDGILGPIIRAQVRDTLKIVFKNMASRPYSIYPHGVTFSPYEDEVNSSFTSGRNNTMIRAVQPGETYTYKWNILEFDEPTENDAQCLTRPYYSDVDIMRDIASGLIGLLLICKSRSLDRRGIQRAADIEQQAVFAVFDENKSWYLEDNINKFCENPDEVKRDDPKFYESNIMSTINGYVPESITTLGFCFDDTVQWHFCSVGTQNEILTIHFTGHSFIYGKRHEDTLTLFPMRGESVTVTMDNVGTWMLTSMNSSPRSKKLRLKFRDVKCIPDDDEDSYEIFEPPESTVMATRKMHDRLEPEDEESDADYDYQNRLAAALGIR
T2 chain 2: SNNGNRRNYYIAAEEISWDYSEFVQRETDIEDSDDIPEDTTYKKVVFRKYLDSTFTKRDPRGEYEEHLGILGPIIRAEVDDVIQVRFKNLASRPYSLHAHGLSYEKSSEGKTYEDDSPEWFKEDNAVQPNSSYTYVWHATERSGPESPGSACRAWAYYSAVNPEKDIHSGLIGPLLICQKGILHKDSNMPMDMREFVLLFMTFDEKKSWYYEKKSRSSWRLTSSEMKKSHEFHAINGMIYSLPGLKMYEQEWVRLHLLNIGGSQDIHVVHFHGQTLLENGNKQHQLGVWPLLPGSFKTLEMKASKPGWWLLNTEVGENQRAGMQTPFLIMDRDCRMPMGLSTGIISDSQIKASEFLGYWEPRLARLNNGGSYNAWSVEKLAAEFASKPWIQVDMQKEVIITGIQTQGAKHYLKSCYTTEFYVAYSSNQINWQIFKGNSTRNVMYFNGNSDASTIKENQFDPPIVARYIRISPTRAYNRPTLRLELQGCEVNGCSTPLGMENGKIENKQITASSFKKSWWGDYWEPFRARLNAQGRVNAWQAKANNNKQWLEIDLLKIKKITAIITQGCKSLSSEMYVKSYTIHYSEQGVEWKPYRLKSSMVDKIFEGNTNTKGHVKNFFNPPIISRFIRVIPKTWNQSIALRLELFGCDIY
The data set can be described thus: filter; HBS 2 mM CaCl2, 0.01% BSA, 0.1% PEG 8000, 37 C; low Bmax. As to conditions: tags: modified FVa, protease-stabilised form described previously; label: 5'-32P. On the procedure:
as §1

Data set [3] deals with T2, Coagulation Factor Va (FVa), modified. The data set can be described thus: filter; no binding above starting library. The note with it: tags: modified FVa, protease-stabilised form described previously; label: 5'-32P. On the procedure: as §1
The target in data set [4] is T1, Coagulation Factor V (FV), modified. The data set can be described thus: filter; no binding above starting library. As to conditions: tags: modified FV, protease-stabilised form described previously; label: 5'-32P. On the procedure: as §1
Data set [5] shares this target. Nature of the data set: filter; lead clone chosen by aPTT activity and binding to FV and FVa; no value given. As to conditions: tags: modified FV, protease-stabilised form described previously; label: 5'-32P.
The target of data set [6] is T2, Coagulation Factor Va (FVa), modified. The data set can be described thus: filter; lead clone; also at 2.0 uM inhibits FVa-phospholipid docking by light scattering (p125). The note with it: tags: modified FVa, protease-stabilised form described previously; label: 5'-32P.
Data set [7] deals with Factor V light chain (UniProt P12259 P12259:1574-2224). The data set can be described thus: SPR; three runs: 1.926, 1.504, 7.997; text ~5 nM; HBS 2 mM CaCl2, 25 C. As to conditions: label: 5'-biotin. The protocol:
(§2) The T18.3 binding constants were determined using surface plasmon resonance (SPR) with a BiaCore3000 (GE Healthcare). This method was used to determine apparent KDs for T18.3 to modified FV, modified FVa, the FV heavy chain, and the FV light chain. The T18.3 aptamer was synthesized (Biosynthesis, Lewisville, Tex.) and included a biotin and PEG 11 spacer on the 5′ end to allow for immobilization of the aptamer on a biotin CAPture chip kit (GE Healthcare). Prior to chip coating, the biotinylated T18.3 was refolded using the same protocol as the in vitro transcribed T18.3 by heating to 95° C. for 3 minutes followed by 3 minutes at room temperature. Aptamer conjugation onto the chip was achieved by flowing aptamer solution over the chip at a rate of 2 μL/min for 5 minutes. For binding to the modified FV, FVa, and purified FV heavy chain, 5.0 ng of aptamer was coated onto the chip. For the purified FV light chain experiments 15.3 ng of aptamer was coated onto the chip. Binding experiments using SPR was performed at 25° C. in HBS with CaCl2, without the addition of BSA or PEG 8000. […] Increasing concentrations of protein were flowed over the T18.3-coated chip and apparent KD was determined by calculating the differences in response units (RU) from buffer for each protein concentration immediately before the end of each protein injection and plotted as ΔRU versus protein concentration. […]
Background: SPR reads the build-up and loss of mass on a sensor chip optically.

Data set [8] has as its target T1, Coagulation Factor V (FV), modified. The data set can be described thus: SPR; three runs: 16.55, 10.00, 8.213; text ~10 nM; HBS 2 mM CaCl2, 25 C. As to conditions: tags: modified FV, protease-stabilised form described previously; label: 5'-biotin. The protocol: as §2
For data set [9], the target named is T2, Coagulation Factor Va (FVa), modified. The data set can be described thus: SPR; three runs: 6.222, 5.408, 5.115; text ~6 nM; HBS 2 mM CaCl2, 25 C. The note with it: tags: modified FVa, protease-stabilised form described previously; label: 5'-biotin. The protocol: as §2
The target in data set [10] is Factor Xa (Homo sapiens, UniProt P00742;P00742 P00742:41-179,P00742:235-488). Nature of the data set: filter; no binding up to 1000 nM FXa. As to conditions: label: 5'-32P.
Factor Xa, sequence (P00742 41-179, chain 1 of 2): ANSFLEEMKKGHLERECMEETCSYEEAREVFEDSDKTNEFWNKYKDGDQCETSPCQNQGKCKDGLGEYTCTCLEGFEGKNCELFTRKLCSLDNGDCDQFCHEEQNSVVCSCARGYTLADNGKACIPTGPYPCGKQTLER
Factor Xa, sequence (P00742 235-488, chain 2 of 2): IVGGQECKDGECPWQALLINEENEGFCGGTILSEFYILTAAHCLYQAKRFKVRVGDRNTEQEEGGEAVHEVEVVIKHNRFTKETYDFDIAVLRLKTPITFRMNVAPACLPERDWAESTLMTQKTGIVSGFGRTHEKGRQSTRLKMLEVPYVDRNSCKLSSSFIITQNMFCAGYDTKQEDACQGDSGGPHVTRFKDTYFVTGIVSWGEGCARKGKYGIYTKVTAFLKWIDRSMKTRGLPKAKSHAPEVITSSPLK
The target in data set [11] is T1, Coagulation Factor V (FV), modified. Nature of the data set: filter; no binding above starting library. As to conditions: tags: modified FV, protease-stabilised form described previously; label: 5'-32P. The source holds these as a separate data set.
Data set [12] concerns the target T2, Coagulation Factor Va (FVa), modified. The data set can be described thus: filter; lead clone chosen by aPTT activity and binding to FV and FVa; no value given. As to conditions: tags: modified FVa, protease-stabilised form described previously; label: 5'-32P.

B1: 11HMT (ssRNA)
RNA: GGAUCCAACGCACAAUUACGUGCCUUGUCAGACGACUCGCUGAGGAUCC
modifications: 2'-F C and U
By Kd is commonly meant a measure of binding affinity in units of concentration. Lower therefore signals tighter binding. Turning to B1, the Kd was 23.2 nM in data set [1] and 0.822 nM in data set [2].

B2: 11Mut2 (ssRNA)
RNA: GGAUCCAACGCACAAUUACGUGCCGGUUCAGACGACUCGCUGAGGAUCC
modifications: 2'-F C and U
With B2, the binding result in [3] and in [4] was “no binding” in each case.

B3: FV R8c7 (ssRNA)
RNA: GGGAGGACGAUGCGGUCGCCCAAACUUGGAUAACCUCACCGCAAUGGCGGCUUGUCAGACGACUCGCUGAGGAUCCGAGA
modifications: 2'-F C and U
For B3, the binding result in data set [5] and in [6] was “binds” each time.

B4: T18.3 biotinylated (ssRNA)
RNA: GGACUUGGAUAACCUCACCGCAAUGGCGGCUUGUCAGACGACUCGCUGAGGAUCCGAG
modifications: 2'-F C and U; 5' biotin and PEG11 spacer
For B4, the values for the Kd in [7], in data set [8] and in data set [9] were 3.47 nM, 11.7 nM and 5.64 nM, respectively.

B5: T18.3 (ssRNA)
RNA: GGACUUGGAUAACCUCACCGCAAUGGCGGCUUGUCAGACGACUCGCUGAGGAUCCGAG
modifications: 2'-F C and U
With B5, in data set [10], the binding result was “no binding”.

B6: 18.3Mut1 (ssRNA)
RNA: GGACUUGGAUAACCUCACCGCAAUGGCGGAGGGUCAGACGACUCGCUGAGGAUCCGAG
modifications: 2'-F C and U
As to B6, the binding result in data set [10] and in [11] was “no binding” in each case.

B7: FVa R9c11 (ssRNA)
RNA: GGGAGGACGAUGCGGUCACGCCCCUCAGGAUCCAACGCACAAUUACGUGCCUUGUCAGACGACUCGCUGAGGAUCCGAGA
modifications: 2'-F C and U
Take B7: the binding result in data set [12] and in data set [5] was “binds” throughout.
